{
  "source": "patent US7767415B2",
  "about": "“Compositions and methods for modifying blood cell carbohydrates” (Velico Medical, Inc., priority 2001, dated 2010)",
  "key": {"[1]": {"tested_on": "Recombinant chicken liver α-N-acetylgalactosaminidase", "conditions": "apparent; pH 3.65, 37° C.; Zhu et al. 1996; cited from earlier work"}, "[2]": {"tested_on": "E. coli expressed recombinant α-N-acetylgalactosaminidase (New England BioLabs, catalog no. P0734B, proprietary strain)", "experiment": "Apparent Km and Vmax with monosaccharide derivative (p-nitrophenol at 405 nm, Lineweaver-Burk), Table XI", "assay_type": "biochemical", "conditions": "pH 7.0, 37° C.", "protocol": "Commercial Recombinant α-N-Acetylgalactosaminidase (New England Biolabs): • vii) 0.5 mM as a starting concentration of αGalNAc p-nitrophenyl monosaccharide derivative in a tube containing 0.05 M Sodium phosphate buffer pH 7.0 was sequentially diluted 2 fold by mixing it with an equal volume of buffer. […] of enzyme was added to each tube and incubated for 10 min at 37° C. The reaction was quenched by adding an equal volume of 0.2 M sodium borate buffer (pH 9.8). The amount of the liberated p-nitrophenol was determined by measuring the absorbance at 405 nm."}, "[3]": {"tested_on": "R. torgues (Ruminococcus torques) α-N-acetylgalactosaminidase, isolated to apparent homogeneity", "conditions": "Hoskins et al. 1997; cited from earlier work"}, "[4]": {"tested_on": "Recombinant coffee bean (Coffea canephora) α-galactosidase", "conditions": "apparent; pH 5.5, 26° C.; Zhu et al. 1995; cited from earlier work"}, "[5]": {"tested_on": "E. coli expressed recombinant α-N-acetylgalactosaminidase (New England BioLabs, catalog no. P0734B, proprietary strain)", "experiment": "Preliminary Km with tetrasaccharide AMC substrate (densitometric scans of substrate/product ratio)", "assay_type": "biochemical", "conditions": "assay unreliable at low concentrations, Km possibly even lower than 20 μM, read-out: Km for the blood group A oligosaccharide substrates", "from_the_text": "(§1) The assay used for this determination involved densitometric scans of the substrate/product ratio using the tetrasaccharide AMC substrate (GalNAcα1-3(Fucα1-2)Galβ1-4GalNAc-AMC)."}, "[6]": {"conditions": "Dean and Sweeley 1979; cited from earlier work"}, "[7]": {"experiment": "Activity with repetitive A heptasaccharide AMC substrate (HPTLC)", "assay_type": "biochemical", "protocol": "FIG. 5b is an HPTLC analysis of five selected Streptomycete α-N-acetylgalactosaminidase activities with the blood group A tetrasaccharide (Panel B-1) and A heptasaccharide AMC (Panel B-2) substrate. Streptomycete strains identified by numbers as in Table VII. […] Reactions were incubated 180 min at 30° C., and 2.5 μl of the reaction mixture was spotted onto HPTLC and developed in CHCl3:methanol:H2O (60:35:8) and photographed. Migration of trisaccharide (H), and tetrasaccharide (A), heptasaccharide and hexasaccharide (H-A) AMC derivatives is indicated by arrows. NE, no enzyme control; rCHl-Az, recombinant Chicken liver A-zyme; Origin, sample application position. The appearance of a disaccharide AMC is due to contaminating α-fucosidase activity.\nAliquots of 2.5-3.0 μl were taken at different time points (0′, 15′, 30′, 60′) to follow product development. Product development was analyzed by HPTLC in chloroform-methanol-water (vol/vol/vol: 60/35/8) and visualized by UV or orcinol staining."}, "A2 red blood cells": {"tested_on": "A2 red blood cells", "experiment": "Enzymatic conversion of A2 red blood cells, hemagglutination typing", "assay_type": "cell-based, human", "conditions": "A2 donors; chicken enzyme 100-200 U/ml, protocols A-C (pH 7.4 or 5.5, 30-37° C., 180 min to 4 hours)", "from_the_text": "(§2) It is evident from the data in Table XII that apparent removal of A antigens is achieved, when defined by one particular anti-blood group A specific monoclonal antibody that is not approved for blood typing procedures (DAKO). A large number of such antibodies exist and, due to specificity and low affinity binding, they are inappropriate for serological typing purposes. Development of monoclonal cocktails for ABO routine typing to substitute previously used polyclonal antibody reagents was a major achievement for the blood bank industry in 1990s. […] Details of the typing assay used in this example is as follows: • Approved typing reagents used in hemagglutination assays were murine monoclonal antibodies and plant lectins obtained from Ortho Clinical Diagnostics, Raritan, N.J.; Gamma Biologicals/Immucor, Norcross, Ga. Non-approved reagents included murine monoclonal anti-A antibody from Dako and a panel of monoclonal antibodies to blood group A variants produced by H. Clausen (Clausen et al., Proc. Natl. Acad. Sci. USA 82(4): 1199-203, 1985, Clausen et al., J Biol Chem. 261(3): 1380-7, 1986, Clausen et al., Biochemistry 25(22): 7075-85, 1986, Clausen et al., J Biol Chem. 262(29): 14228-34, 1987). Typing reagents were used according to the manufacturers recommendations and other monoclonal antibodies as determined by titrations. Hemagglutination Assay (Room Temperature) 1. […]"}, "A1 red blood cells": {"tested_on": "A1 red blood cells", "experiment": "Enzymatic conversion of A1 red blood cells, hemagglutination typing", "assay_type": "cell-based, human", "conditions": "A1 donors; chicken enzyme 200 U/ml, 50% hematocrit, 37° C., 4 hours (protocols B, C)", "from_the_text": "as §2"}, "[8]": {"experiment": "Activity with blood group A tetrasaccharide AMC substrate (HPTLC)", "assay_type": "biochemical", "protocol": "FIG. 10 illustrates the activity of E. coli expressed α-N-acetylgalactosaminidase with the blood group A tetrasaccharide AMC substrate at different pH. Assays were performed in reactions of 10 μl containing 1 nmole of α-tetra, 0.05 μg enzyme, and the buffer Na Citrate-NaPO4 at varying pH 2.6-8.0. Reactions were incubated 40 min at 26° C., and 3 μl samples analyzed by HPTLC. Panel A: HPTLC analysis; Panel B: Substrate cleavage quantified by scanning and plotted against pH.\nAssays with Derivatized oligosaccharide substrates (AMC, OGr) were performed by the following procedure: • iii) One (AMC) or 5 (OGr) nmol substrate in reaction mixtures of a total volume of 10 μl containing 50 mM sodium citrate (pH 6.0) was incubated at 26° C. Aliquots of 2.5-3.0 μl were taken at different time points (0′, 15′, 30′, 60′) to follow product development. Product development was analyzed by HPTLC in chloroform-methanol-water (vol/vol/vol: 60/35/8) and visualized by UV or orcinol staining. […]\nas §1"}, "[9]": {"experiment": "Activity with blood group A tetrasaccharide AMC substrate (HPTLC)", "assay_type": "biochemical", "conditions": "for difference of specific activity, GalNAcα1-pNP versus A tetrasaccharide substrate: pH 3.65; for Specific activity with blood group A tetrasaccharide-AMC: pH 5.5"}, "[10]": {"conditions": "cited from earlier work; for Specific activity with GalNAcα1-pNP: pH 3.65 (optimal pH)"}, "[11]": {"conditions": "listed as chicken α-N-acetylgalactosaminidase"}, "[12]": {"conditions": "listed as recombinant chicken α-N-acetylgalactosaminidase"}},
  "note": "Read-outs that look alike come from different tables or passages of the source.",
  "data": [
    {"molecule": "CC(=O)N[C@H]1[C@@H](Oc2ccc([N+](=O)[O-])cc2)O[C@H](CO)[C@H](O)[C@@H]1O", "note": "[GalNAcα1-pNP, p-nitrophenyl-α-D-N-acetylgalactosaminopyranoside]", "values": [
      {"measurement": "Km", "setting": "[1]", "value": 827, "unit": "µM"},
      {"measurement": "Vmax", "setting": "[1]", "value": 60.9, "unit": "U/mg^3"},
      {"measurement": "Km", "setting": "[2]", "value": "10 to 50", "unit": "µM"},
      {"measurement": "Vmax", "setting": "[2]", "value": 3.3, "unit": "U/mg^3"},
      {"measurement": "Km", "setting": "[3]", "value": "2000 to 8000", "unit": "µM"}
    ]},
    {"molecule": "O=[N+]([O-])c1ccc(O[C@H]2O[C@H](CO)[C@H](O)[C@H](O)[C@H]2O)cc1", "note": "[Galα1-pNP, p-nitrophenyl α-galactoside]", "values": [
      {"measurement": "Km", "setting": "[4]", "value": 363, "unit": "µM"},
      {"measurement": "Vmax", "setting": "[4]", "value": 46.9, "unit": "U/mg^1"}
    ]},
    {"molecule": "GalNAcα1-3(Fucα1-2)Galβ1-4GalNAc-AMC", "values": [
      {"measurement": "Km", "setting": "[5]", "value": "~20", "unit": "µM"}
    ]},
    {"molecule": "human α-N-acetylgalactosaminidase: human α-N-acetylgalactosaminidase (alpha-galactosidase B), isolated, cloned and expressed (protein, UniProt P17050 18-411, looked up) Alpha-N-acetylgalactosaminidas …: LDNGLLQTPPMGWLAWERFRCNINCDEDPKNCISEQLFMEMADRMAQDGWRDMGYTYLNIDDCWIGGRDASGRLMPDPKRFPHGIPFLADYVHSLGLKLGIYADMGNFTCMGYPGTTLDKVVQDAQTFAEWKVDMLKLDGCFSTPEERAQGYPKMAAALNATGRPIAFSCSWPAYEGGLPPRVNYSLLADICNLWRNYDDIQDSWWSVLSILNWFVEHQDILQPVAGPGHWNDPDMLLIGNFGLSLEQSRAQMALWTVLAAPLLMSTDLRTISAQNMDILQNPLMIKINQDPLGIQGRRIHKEKSLIEVYMRPLSNKASALVFFSCRTDMPYRYHSSLGQLNFTGSVIYEAQDVYSGDIISGLRDETNFTVIINPSGVVMWYLYPIKNLEMSQQ", "values": [
      {"measurement": "pH optimum", "setting": "[6]", "value": 3.5}
    ]},
    {"molecule": "Recombinant Chicken Liver α-N-acetylgalactosaminidase: Chicken liver α-N-acetylgalactosaminidase, recombinant, expressed in P. pastoris; prior-art enzyme for A cell conversion (protein, UniProt Q90744 1-405, looked up) Alpha-N-acetylgalactosaminidas …: LENGLARTPPMGWLAWERFRCNVNCREDPRQCISEMLFMEMADRIAEDGWRELGYKYINIDDCWAAKQRDAEGRLVPDPERFPRGIKALADYVHARGLKLDIYGDLGRLTCGGYPGTTLDRVEQDAQTFAEWGVDMLKLDGCYSSGKEQAQGYPQMARALNSTGRPIVYSCSWPAYQGGLPPKVNYTLLGEICNLWRNYDDIQDSWDSVLSIVDWFFTNQDVLQPFAGPGHWNDPDMLIIGNFGLSYEQSRSQMALWTIMAAPLLMSTDLRTISPSAKKILQNRLMIQINQDPLGIQGRRIIKEGSHIEVFLRPLSQAASALVFFSRRTDMPFRYTTSLAKLGFPMGAAYEVQDVYSGKIISGLKTGDNFTVIINPSGVVMWYLCPKALLIQQQAPGGPSRLPLL", "values": [
      {"measurement": "Specific activity with repetitive A heptasaccharide-AMC", "setting": "[7]; pH 3.65", "value": 0.5, "unit": "U/mg"},
      {"measurement": "Specific activity with repetitive A heptasaccharide-AMC", "setting": "[7]; pH 5.5", "value": 0.4, "unit": "U/mg"},
      {"measurement": "specific activity with repetitive A type 3 AMC derivative (structure 6)", "setting": "[7]; pH not stated", "value": "approximately 0.3 U/mg"},
      {"measurement": "Agglutination, Dolichos biflorus, post enzyme treatment", "setting": "A2 red blood cells", "value": 0},
      {"measurement": "Agglutination, Dolichos biflorus, post enzyme treatment", "setting": "A1 red blood cells", "value": 0},
      {"measurement": "pH optimum with the blood group A tetrasaccharide AMC substrate", "setting": "[8]; not shown", "value": "3.5-4.5"},
      {"measurement": "Specific activity with blood group A tetrasaccharide-AMC", "setting": "[8]; pH 3.65", "value": 0.5, "unit": "U/mg"},
      {"measurement": "Specific activity with blood group A tetrasaccharide-AMC", "setting": "[8]; pH 3.65, listed as chicken α-N-acetylgalactosaminidase", "value": 0.3, "unit": "U/mg"},
      {"measurement": "Specific activity with blood group A tetrasaccharide-AMC", "setting": "[8]; pH 3.65, listed as recombinant chicken α-N-acetylgalactosaminidase", "value": 0.3, "unit": "U/mg"},
      {"measurement": "Specific activity with blood group A tetrasaccharide-AMC", "setting": "[8]; pH 5.5", "value": 0.4, "unit": "U/mg"},
      {"measurement": "specific activity with A type 2 tetrasaccharide AMC derivative (structure 3)", "setting": "[8]; pH not stated", "value": "approximately 0.3 U/mg"},
      {"measurement": "difference of specific activity, GalNAcα1-pNP versus A tetrasaccharide substrate", "setting": "[9]; [11]", "value": "over 100 fold"},
      {"measurement": "difference of specific activity, GalNAcα1-pNP versus A tetrasaccharide substrate", "setting": "[9]; [12]", "value": 166, "unit": "fold"},
      {"measurement": "Specific activity with blood group A tetrasaccharide-AMC", "setting": "[9]; [11]", "value": 0.2, "unit": "U/mg"},
      {"measurement": "Specific activity with blood group A tetrasaccharide-AMC", "setting": "[9]; [12]", "value": 0.2, "unit": "U/mg"},
      {"measurement": "specific activity using p-nitrophenyl αGalNAc as substrate", "setting": "[10]; literature values, pH not stated", "value": "51-56 U/mg"},
      {"measurement": "Specific activity with GalNAcα1-pNP", "setting": "[10]", "value": 50, "unit": "U/mg^3"},
      {"measurement": "Specific activity with GalNAcα1-pNP", "setting": "[10]; [11]", "value": "approximately 50 U/mg"},
      {"measurement": "Specific activity with GalNAcα1-pNP", "setting": "[10]; [12]", "value": "approximately 50 U/mg"}
    ]}
  ]
}
